The text below walks through data of US20080118504A1 (University of California, published 2008).

Experiment [1] addresses T1, TLR4 containing N-terminal HA-tag, stably transfected in CHO (EL1) cells (UniProt O00206 24-839, limits assumed).
T1 construct: whole, on cells; also called membrane TLR4; TLR4 transfected EL-1 cells; not shown: N-terminal HA-tag
Briefly: FACS with anti-His and anti-HA on TLR4 transfected EL-1 (CHO) cells, receptor numbers from a microbead standard curve; 0.5 nM sMD-2, 20 min. The method, then: (§1) LPS activation increased with increasing MD-2 levels on the cell surface. TLR4 transfected EL-1 cells (a CHO cell line stably transfected with NF-κB/CD25 reporter plasmid) were incubated with various amount of soluble MD-2 for 20 min. The amount of soluble MD-2 that bound to TLR4 transfected cells as well as the TLR4 expression level were assayed by FACS analysis using antibody to His-tag and HA-tag, respectively. The MD-2 and TLR4 receptor numbers were calculated by converting mean channel number (MCN) of fluorescence intensity using the standard curve generated with Simply Cellular Microbeads. The cells were also activated with 100 ng/ml LPS and NF-κB activation assayed by FACS analysis of surface CD25 expression.
(§2) Various concentrations of sMD-2, plotted on the x-axis, was added to CHO (EL1) cells stably transfected with TLR4. The amount of TLR4 and MD-2 on the cell surface was analyzed by FACS using anti-HA tag and anti-His tag antibody, respectively. The receptor numbers plotted on the left Y-axis were calculated from mean channel number (MCN) and the standard curves generated by simply cellular microbeads. The cells were also activated with 100 ng/ml of LPS.

Experiment [2] addresses T1, TLR4 containing N-terminal HA-tag, …. Put plainly: FACS with anti-His and anti-HA on TLR4 transfected EL-1 (CHO) cells, receptor numbers from a microbead standard curve. The method, then:
as §1, §2

For experiment [3] the target is unchanged. Briefly: FACS with anti-His tag of purified sMD-2 on TLR4 transfected EL1 (CHO) cells. As to the method:
To determine sMD-2 mutants binding to TLR4, the purified proteins were added to TLR4 transfected EL1 cells, washed off excess protein after 15 min or overnight incubation, stained with anti-His tag antibody and analyzed by FACS. FIG. 10 illustrates data showing LPS activation of sMD-2. TLR4 transfected CHO cells harboring CD25 reporter plasmids were activated with 100 ng/ml LPS in the absence and presence of 5 ug/ml of sMD-2 and the NF-κB activation was measured by FACS analysis of CD25 surface expression (MCN) using anti-CD25-PE. […] None of mutants with mostly oligomers remained in association to TLR4 cells after 16 hr. The unglycosylated MD-2 bound normally to TLR4 cells after 15 min but the binding was reduced after 16 hr.

T1 sequence (O00206 24-839 limits assumed): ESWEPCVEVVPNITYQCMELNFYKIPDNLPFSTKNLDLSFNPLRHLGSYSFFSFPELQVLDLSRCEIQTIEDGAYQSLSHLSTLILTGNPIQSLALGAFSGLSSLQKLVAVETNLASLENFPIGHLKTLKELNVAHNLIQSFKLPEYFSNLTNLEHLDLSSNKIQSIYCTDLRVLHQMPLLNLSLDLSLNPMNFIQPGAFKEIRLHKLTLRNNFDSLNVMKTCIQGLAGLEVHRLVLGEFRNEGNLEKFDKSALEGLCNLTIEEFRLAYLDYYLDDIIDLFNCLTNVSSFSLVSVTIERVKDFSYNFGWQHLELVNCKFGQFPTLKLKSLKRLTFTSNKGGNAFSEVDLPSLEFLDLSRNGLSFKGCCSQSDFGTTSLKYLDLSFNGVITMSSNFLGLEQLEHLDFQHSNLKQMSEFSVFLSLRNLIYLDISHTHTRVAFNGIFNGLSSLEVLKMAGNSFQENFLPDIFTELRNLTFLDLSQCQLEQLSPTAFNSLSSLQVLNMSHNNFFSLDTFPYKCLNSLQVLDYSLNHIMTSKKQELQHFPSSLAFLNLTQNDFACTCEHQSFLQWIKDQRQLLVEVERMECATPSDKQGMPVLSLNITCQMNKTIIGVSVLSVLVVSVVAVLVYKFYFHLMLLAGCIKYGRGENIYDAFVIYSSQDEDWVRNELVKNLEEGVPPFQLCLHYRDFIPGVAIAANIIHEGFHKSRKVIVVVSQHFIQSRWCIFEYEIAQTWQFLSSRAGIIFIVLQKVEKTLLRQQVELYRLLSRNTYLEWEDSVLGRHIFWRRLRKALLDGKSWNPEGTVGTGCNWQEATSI

B1: soluble MD-2 wild type (human MD-2 with C-terminal His-tag, from insect cells) (other)
chain: EAQKQYWVCNSSDASISYTYCDKMQYPISINVNPCIELKGSKGLLHIFYIPRRDLKQLYFNLYITVNTMNLPKRKEVICRGSDDDYSFCRALKGETVNTTISFSFKGIKFSKGKYKCVVEAISGSPEEMLFCLEFVILHQPNSN
notes: Expressed with the gp64 signal peptide in place of its own; The purified protein is a mixture of monomer and disulfide-linked oligomers; also called sMD-2; sMD-2 WT; not shown: C-terminal V5/His tag of the vector (pBlueBac4.5/V5-His or pBac11)
With B1, in experiment [1], the “calculated ratio of surface MD-2 per TLR4” value was 0.5 MD-2 per TLR4. The “calculated ratio of MD-2 per TLR4 at maximal LPS activation” value in experiment [2] is about 5 MD-2 per TLR4.

B2: soluble MD-2 alanine replacement mutant 127-131 (other)
chain: EAQKQYWVCNSSDASISYTYCDKMQYPISINVNPCIELKGSKGLLHIFYIPRRDLKQLYFNLYITVNTMNLPKRKEVICRGSDDDYSFCRALKGETVNTTISFSFKGIKFAAAAAKCVVEAISGSPEEMLFCLEFVILHQPNSN
notes: Expressed as a monomer; also called mutant SKGKY; not shown: C-terminal V5/His tag of the vector
With B2, in experiment [3], the binding result is on record as “no binding (tested: 1 or 5 µg/ml)”.
